# Substitutions are numbered along the chain they refer to.
# T1: Recombinant human CTLA4-Fc (human, UniProt P16410 36-161, limits assumed)
# T1 construct: Coated on the ELISA plate at 1 ug/mL; also called antigen; not shown: Fc part
# T1 sequence (looked up): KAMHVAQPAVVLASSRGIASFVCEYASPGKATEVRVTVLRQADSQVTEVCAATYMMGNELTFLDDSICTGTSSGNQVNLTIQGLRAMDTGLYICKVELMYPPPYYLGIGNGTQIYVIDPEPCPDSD
# B1: TY22402 (as listed in Table 11) (antibody, V domains shown)
# VH: EVQLVESGGGLVQPGGSLRLSCAASGYSISSGYHWSWIRQAPGKGLEWLARIDWDDDKYYSTSLKSRLTISRDNSKNTLYLQLNSLRAEDTAVYYCARSYVYFDYWGQGTLVTVSS
# VL: EVGSYIVHHSDCDAFYPYCDSSGRSAGGGGTPLGLAGSGGSDIQLTQSPSSLSASVGDRVTITCRASQSVRGRFLAWYQQKPGKAPKLLIYDASNRATGIPSRFSGSGSGTDFTLTISSLQPEDFATYYCQQSSSWPPTFGQGTKVEIKR
# notes: kept apart from m3; Expressed in mammalian cells; isotype not restated
# B2: TY22404 (as listed in Tables 11 and 14) (antibody, V domains shown)
# VH: B1 VH
# VL: EVGSYPNPSSDCVPYYYACAYSGRSAGGGGTPLGLAGSGGSDIQLTQSPSSLSASVGDRVTITCRASQSVRGRFLAWYQQKPGKAPKLLIYDASNRATGIPSRFSGSGSGTDFTLTISSLQPEDFATYYCQQSSSWPPTFGQGTKVEIKR
# notes: kept apart from m5; Expressed in mammalian cells; isotype not restated
# B3: TY21242 (antibody, V domains shown)
# VH: EVQLVESGGGLVQPGGSLRLSCAASGFSLSTGGVGVGWIRQAPGKGLEWLALIDWADDKYYSPSLKSRLTISRDNSKNTLYLQLNSLRAEDTAVYYCARGGSDTVIGDWFAYWGQGTLVTVSS
# VL: DIQLTQSPSSLSASVGDRVTITCRASQSIGSYLAWYQQKPGKAPKLLIYDASNLETGVPSRFSGSGSGTDFTLTISSLQPEDFATYYCQQGYYLWTFGQGTKVEIK
# notes: Anti-human-CD137 antibody; the isotype of the parent is not restated; also called parental antibody TY21242; parental CD137 antibody
# B4: TY22596 (antibody, V domains shown)
# VH: B3 VH
# VL: EVGSYYHDYDDCRVLPRRCFNSGRSAGGGGSPLGLAGSGGSDIQLTQSPSSLSASVGDRVTITCRASQSIGSYLAWYQQKPGKAPKLLIYDASNLETGVPSRFSGSGSGTDFTLTISSLQPEDFATYYCQQGYYLWTFGQGTKVEIK
# notes: Full IgG4 expressed in mammalian cells, uncleaved
# B5: TY22598 (antibody, V domains shown)
# VH: B3 VH
# VL: EVGSYSNNFASCLWRHRSCADSGRSAGGGGSPLGLAGSGGSDIQLTQSPSSLSASVGDRVTITCRASQSIGSYLAWYQQKPGKAPKLLIYDASNLETGVPSRFSGSGSGTDFTLTISSLQPEDFATYYCQQGYYLWTFGQGTKVEIK
# notes: as for B4
# B6: TY22591 (antibody, V domains shown)
# VH: B3 VH
# VL: EVGSYSSTHAHCHHSPANCISSGRSAGGGGSPLGLAGSGGSDIQLTQSPSSLSASVGDRVTITCRASQSIGSYLAWYQQKPGKAPKLLIYDASNLETGVPSRFSGSGSGTDFTLTISSLQPEDFATYYCQQGYYLWTFGQGTKVEIK
# notes: as for B4
# B7: TY22595 (antibody, V domains shown)
# VH: B3 VH
# VL: EVGSYNDYNYHCKWRPSRCHNSGRSAGGGGSPLGLAGSGGSDIQLTQSPSSLSASVGDRVTITCRASQSIGSYLAWYQQKPGKAPKLLIYDASNLETGVPSRFSGSGSGTDFTLTISSLQPEDFATYYCQQGYYLWTFGQGTKVEIK
# notes: as for B4
# B8: TY22599 (antibody, V domains shown)
# VH: B3 VH
# VL: B4 VL with Y6T, H7D, D8N, D11Y, R13P, V14R, P16R, R18K, F20Y, N21H
# notes: as for B4
# B9: TY22594 (antibody, V domains shown)
# VH: B3 VH
# VL: B4 VL with Y6D, H7T, D11F, R13P, V14I, P16R, R17H, F20D, N21S
# notes: as for B4
# B10: TY22586 (antibody, V domains shown)
# VH: B3 VH
# VL: EVGSYPTDLDACADAPNHCHFSGRSAGGGGSPLGLAGSGGSDIQLTQSPSSLSASVGDRVTITCRASQSIGSYLAWYQQKPGKAPKLLIYDASNLETGVPSRFSGSGSGTDFTLTISSLQPEDFATYYCQQGYYLWTFGQGTKVEIK
# notes: as for B4
# B11: TY22564 (antibody, V domains shown)
# VH: B1 VH
# VL: EVGSYYSAYPACDSHYPYCNSAGRSAGGGGSPLGLAGSGGSDIQLTQSPSSLSASVGDRVTITCRASQSVRGRFLAWYQQKPGKAPKLLIYDASNRATGIPSRFSGSGSGTDFTLTISSLQPEDFATYYCQQSSSWPPTFGQGTKVEIKR
# notes: IgG1, uncleaved; mask derived from B13192 or B13197 to remove a potential glycosylation site
# B12: TY22566 (antibody, V domains shown)
# VH: B1 VH
# VL: B2 VL with S9A, T31S
# notes: as for B11
# B13: TY22563 (antibody, V domains shown)
# VH: B1 VH
# VL: B11 VL with N20Q, A22S
# notes: as for B11
# B14: TY22565 (antibody, V domains shown)
# VH: B1 VH
# VL: B2 VL with N7Q, T31S
# notes: as for B11
# B15: TY22404 (antibody, IgG1, V domains shown)
# VH: B1 VH
# VL: B2 VL with T31S
# notes: IgG1 from HEK293F cells, uncleaved; also called peptide name B13197
# B16: TY22401 (antibody, V domains shown)
# VH: B1 VH
# VL: EVGSYNFVADSCPDHPYPCSASGRSAGGGGSPLGLAGSGGSDIQLTQSPSSLSASVGDRVTITCRASQSVRGRFLAWYQQKPGKAPKLLIYDASNRATGIPSRFSGSGSGTDFTLTISSLQPEDFATYYCQQSSSWPPTFGQGTKVEIKR
# notes: IgG1 from HEK293F cells, uncleaved; also called peptide name B13189
# B17: TY22402 (antibody, IgG1, V domains shown)
# VH: B1 VH
# VL: B1 VL with T31S
# notes: IgG1 from HEK293F cells, uncleaved; also called peptide name B13180
# Molecular target: T1, Recombinant human CTLA4-Fc
# Assay: ELISA EC50 divided by EC50 of parental TY21580 (FIG. 24B)
# Method: (§1) Recombinant human CTLA4-Fc was diluted to 1μg/mL in PBS and coated on a Maxisorp plate at 4° C. overnight. Plates were blocked with PBS supplemented with 3% non-fat milk at 37° C. for 1 hour. After washing, 100 μL of 3-fold serial dilutions of antibodies were added to each well. After incubation at 37° C. for 1 hour, plates were washed four times, and 100 μL HRP conjugated anti-human IgG (Fab specific) (1:6000 dilution) was added to each well. Plates were incubated at 37° C. for 1 hour, washed four times, and then 50 μL TMB substrate solution was added to each well, and the plate was incubated at room temperature. Absorbance at 450 nm was measured after the reactions were stopped with 50 μL H₂SO₄ per well. The EC₅₀ was evaluated by fitting the ELISA data using the asymmetrical sigmoidal (five-parameter logistic equation) model of GraphPad Prism 6 software.
row,Masking efficiency,Binder
1,554,B1
2,572,B2

# Molecular target: T2, Human CD137 displayed on yeast cells (human, UniProt Q07011 24-186, limits assumed)
# T2 construct: Yeast cells displaying human CD137, stained with serial dilutions of antibody; also called human CD137 on the cell surface
# Assay: flow cytometry on yeast cells displaying human CD137; ratio to parental TY21242
# Method: (§2) The masking efficiency was then measured through flow cytometry. Briefly, yeast cells displaying human CD137 on their surface washed twice with PB SA buffer, and 50 μL (1×10̂6) cells were dispensed into each well of a 96 well plate. Cells were then incubated with 3-fold serial dilutions of antibodies for 1 hour on ice, washed once with PBSA buffer, and then incubated with 100 μL of PE conjugated mouse anti-human Fc (1 μg/ml) for 30 minutes on ice. The cells were then washed once prior to analysis by flow cytometry (Beckman® CytoFlex).
row,Masking efficiency,Binder
1,1,B3
2,20.8,B4
3,30.5,B5
4,38.3,B6
5,379,B7
6,348,B8
7,83.7,B9
8,300 fold,B10

# Molecular target: T1, Recombinant human CTLA4-Fc
# Assay: ELISA EC50 divided by EC50 of parental TY21580, third block of Table 6
# Method: as §1
row,Masking efficiency,Binder
1,117,B11
2,489,B12
3,144,B13
4,632,B14

# Molecular target: T1, Recombinant human CTLA4-Fc
# Assay: ELISA EC50 divided by EC50 of parental TY21580, data batch 2
# Method: as §1
row,Masking efficiency,Binder
1,385,B15
2,48,B16
3,377,B17

# Molecular target: T1, Recombinant human CTLA4-Fc
# Assay: ELISA EC50 divided by EC50 of parental TY21580 (FIG. 25)
# Method: as §1
row,Masking efficiency,Binder
1,469,B2

# Molecular target: T1, Recombinant human CTLA4-Fc
# Assay: ELISA EC50 divided by EC50 of parental TY21580, data batch 1
# Method: as §1
row,Masking efficiency,Binder
1,826,B15
2,110,B16
3,2210,B17

# Molecular target: T1, Recombinant human CTLA4-Fc
# Assay: ELISA EC50 divided by EC50 of parental TY21580 (FIG. 24A)
# Method: as §1
row,Masking efficiency,Binder
1,243,B1
2,308,B2

# Molecular target: T2, Human CD137 displayed on yeast cells
# Assay: flow cytometry on yeast cells displaying human CD137; column headed EC50 / KD (nM)
# Method: as §2
row,EC50 [nM],Binder
1,0.28,B3
2,5.86,B4
3,8.61,B5
4,10.8,B6
5,107,B7
6,98.1,B8
7,23.6,B9

# Reference: patent US20190241886A1 (ADAGENE, published 2019)
